Consider 15 molecules from patent publication US20260209386A1 (MYTHIC THERAPEUTICS, published 2026).

The target in assay [1] is T1, Human PTK7 Protein, His Tag, Acro Biosystems (human, UniProt Q13308 31-704).
T1 construct: Bought recombinant protein; also called CCK4; not shown: His tag
T1 sequence: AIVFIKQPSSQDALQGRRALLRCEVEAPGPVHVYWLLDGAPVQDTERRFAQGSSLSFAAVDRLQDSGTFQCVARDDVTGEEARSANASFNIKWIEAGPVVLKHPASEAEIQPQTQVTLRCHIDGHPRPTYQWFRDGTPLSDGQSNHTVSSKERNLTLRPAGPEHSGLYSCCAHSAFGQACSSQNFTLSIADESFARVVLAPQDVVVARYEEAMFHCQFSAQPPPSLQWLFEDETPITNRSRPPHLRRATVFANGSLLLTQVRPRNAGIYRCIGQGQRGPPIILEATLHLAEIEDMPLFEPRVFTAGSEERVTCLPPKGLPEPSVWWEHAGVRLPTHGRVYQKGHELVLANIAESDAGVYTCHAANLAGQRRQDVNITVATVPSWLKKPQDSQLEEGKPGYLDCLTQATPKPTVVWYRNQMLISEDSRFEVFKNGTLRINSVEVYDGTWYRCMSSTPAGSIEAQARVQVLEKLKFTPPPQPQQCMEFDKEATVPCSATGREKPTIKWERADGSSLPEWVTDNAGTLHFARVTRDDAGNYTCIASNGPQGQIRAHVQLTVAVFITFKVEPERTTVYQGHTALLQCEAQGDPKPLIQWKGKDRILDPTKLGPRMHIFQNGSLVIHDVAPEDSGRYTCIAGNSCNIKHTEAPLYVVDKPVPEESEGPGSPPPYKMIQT
Nature of the assay: BLI (Octet), antibody on anti-human Fc sensor, 50 nM PTK7 at pH 7.4, dissociation at pH 7.4 or 5.4; 2 = substantially similar binding relative to parent. A general note: BLI is a label-free optical method that tracks binding on a fibre tip over time.

Assay [2] concerns the target T2, Human PTK7 Protein, His Tag (Acro Biosystems) (human, UniProt Q13308 31-704).
T2 construct: Bought recombinant protein; also called CCK4; tyrosine-protein kinase-like 7; not shown: His tag
T2 sequence: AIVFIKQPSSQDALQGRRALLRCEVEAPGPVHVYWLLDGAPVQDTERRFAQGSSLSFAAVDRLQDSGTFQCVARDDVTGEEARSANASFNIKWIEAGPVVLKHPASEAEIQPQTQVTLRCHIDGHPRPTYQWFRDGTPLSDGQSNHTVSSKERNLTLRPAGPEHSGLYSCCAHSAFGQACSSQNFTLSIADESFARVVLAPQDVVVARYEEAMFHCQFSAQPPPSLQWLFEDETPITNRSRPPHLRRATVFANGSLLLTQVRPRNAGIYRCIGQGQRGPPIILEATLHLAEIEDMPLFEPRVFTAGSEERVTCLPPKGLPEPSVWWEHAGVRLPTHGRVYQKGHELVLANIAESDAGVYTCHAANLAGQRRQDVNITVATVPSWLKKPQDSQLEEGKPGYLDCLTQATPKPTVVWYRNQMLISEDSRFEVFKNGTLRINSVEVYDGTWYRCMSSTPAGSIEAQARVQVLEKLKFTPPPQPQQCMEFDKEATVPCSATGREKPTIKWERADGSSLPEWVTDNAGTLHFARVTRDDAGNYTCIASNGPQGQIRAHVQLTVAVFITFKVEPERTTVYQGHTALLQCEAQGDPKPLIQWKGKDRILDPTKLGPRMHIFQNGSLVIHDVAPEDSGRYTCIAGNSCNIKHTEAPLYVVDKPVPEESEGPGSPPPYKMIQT
Nature of the assay: BLI, antibody on anti-human Fc sensor, 50 nM PTK7 at pH 7.4, dissociation at pH 7.4 or 5.4; 2 = substantially similar binding relative to parent.

B1: MYT10885 (antibody, V domains shown)
VH: EVQLVESGGGLVQPGGSLRLSCTASHFSLSNYVMNWVRQAPGKGLEWVGIIDSSGSTYYASWAKGRFTISRDTSKNTVYLQMNSLRAEDTAVYFCARGLYLWGQGTLVTVSS
VL: EIVMTQSPSTLSASVGDRVIITCQSSQSVYNNNLLAWYQQKPGKAPKLLIYYTSNLASGVPSRFSGSGSGAEFTLTISSLQPDDFATYYCQGGYNGNIYAFGQGTKLTVL
notes: MYT9345 variant, His at VH pos 26 (H1 01)
Turning to B1, the binding result in assay [1] was “binds”.

B2: MYT10886 (antibody, V domains shown)
VH: EVQLVESGGGLVQPGGSLRLSCTASGHSLSNYVMNWVRQAPGKGLEWVGIIDSSGSTYYASWAKGRFTISRDTSKNTVYLQMNSLRAEDTAVYFCARGLYLWGQGTLVTVSS
VL: EIVMTQSPSTLSASVGDRVIITCQSSQSVYNNNLLAWYQQKPGKAPKLLIYYTSNLASGVPSRFSGSGSGAEFTLTISSLQPDDFATYYCQGGYNGNIYAFGQGTKLTVL
notes: MYT9345 variant, His at VH pos 27 (H1 02)
On to B2, for which the binding result in assay [1] is “binds”.

B3: MYT10890 (antibody, V domains shown)
VH: EVQLVESGGGLVQPGGSLRLSCTASGFSLSHYVMNWVRQAPGKGLEWVGIIDSSGSTYYASWAKGRFTISRDTSKNTVYLQMNSLRAEDTAVYFCARGLYLWGQGTLVTVSS
VL: EIVMTQSPSTLSASVGDRVIITCQSSQSVYNNNLLAWYQQKPGKAPKLLIYYTSNLASGVPSRFSGSGSGAEFTLTISSLQPDDFATYYCQGGYNGNIYAFGQGTKLTVL
notes: MYT9345 variant, His at VH pos 31 (H1 06)
Consider B3, for which the binding result in assay [1] is on record as “binds”.

B4: MYT10893 (antibody, V domains shown)
VH: EVQLVESGGGLVQPGGSLRLSCTASGFSLSNYVHNWVRQAPGKGLEWVGIIDSSGSTYYASWAKGRFTISRDTSKNTVYLQMNSLRAEDTAVYFCARGLYLWGQGTLVTVSS
VL: EIVMTQSPSTLSASVGDRVIITCQSSQSVYNNNLLAWYQQKPGKAPKLLIYYTSNLASGVPSRFSGSGSGAEFTLTISSLQPDDFATYYCQGGYNGNIYAFGQGTKLTVL
notes: MYT9345 variant, His at VH pos 34 (H1 09)
In the case of B4, the binding result in assay [1] is “binds”.

B5: MYT10887 (antibody, V domains shown)
VH: EVQLVESGGGLVQPGGSLRLSCTASGFHLSNYVMNWVRQAPGKGLEWVGIIDSSGSTYYASWAKGRFTISRDTSKNTVYLQMNSLRAEDTAVYFCARGLYLWGQGTLVTVSS
VL: EIVMTQSPSTLSASVGDRVIITCQSSQSVYNNNLLAWYQQKPGKAPKLLIYYTSNLASGVPSRFSGSGSGAEFTLTISSLQPDDFATYYCQGGYNGNIYAFGQGTKLTVL
notes: MYT9345 variant, His at VH pos 28 (H1 03)
On to B5, for which the binding result in assay [1] was “binds”.

B6: MYT11399 (antibody, V domains shown)
VH: EVQLVESGGGLVQPGGSLRLSCTASGIDLSNYAVIWVRQAPGKGLEWVGIIYTYDTTYYANWAKGRFTISRDTSKNTVYLQMNSLRAEDTAVYFCARSFSDISDLIKLWGQGTLVTVSS
VL: EIVMTQSPSTLSASVGDRVIITCQASQSLYNNKDLAWYQQKPGKAPKLLIYEASHLASGVPSRFSGSGSGAEFTLTISSLQPDDFATYYCLGEFSCGSGDCLAFGQGTKLTVL
notes: MYT9797 LC variant; captured via anti-human Fc
For B6, the binding result in assay [2] is “binds”.

B7: MYT11419 (antibody, V domains shown)
VH: EVQLVESGGGLVQPGGSLRLSCTASGIDLSNYAVIWVRQAPGKGLEWVGIIYTYDTTYYANWAKGRFTISRDTSKNTVYLQMNSLRAEDTAVYFCARSFSDISDLIKLWGQGTLVTVSS
VL: EIVMTQSPSTLSASVGDRVIITCQASQSLYNNKDLAWYQQKPGKAPKLLIYEASKLASGVPSRFSGSGSGAEFTLTISSLQPDDFATYYCLGAFSCGSGDCLAFGQGTKLTVL
notes: MYT9797 LC alanine variant; captured via anti-human Fc
With B7, the binding result in assay [2] was “binds”.

B8: MYT11401 (antibody, V domains shown)
VH: EVQLVESGGGLVQPGGSLRLSCTASGIDLSNYAVIWVRQAPGKGLEWVGIIYTYDTTYYANWAKGRFTISRDTSKNTVYLQMNSLRAEDTAVYFCARSFSDISDLIKLWGQGTLVTVSS
VL: EIVMTQSPSTLSASVGDRVIITCQASQSLYNNKDLAWYQQKPGKAPKLLIYEASKLHSGVPSRFSGSGSGAEFTLTISSLQPDDFATYYCLGEFSCGSGDCLAFGQGTKLTVL
notes: as for B6
On to B8, for which the binding result in assay [2] is reported as “binds”.

B9: MYT11400 (antibody, V domains shown)
VH: EVQLVESGGGLVQPGGSLRLSCTASGIDLSNYAVIWVRQAPGKGLEWVGIIYTYDTTYYANWAKGRFTISRDTSKNTVYLQMNSLRAEDTAVYFCARSFSDISDLIKLWGQGTLVTVSS
VL: EIVMTQSPSTLSASVGDRVIITCQASQSLYNNKDLAWYQQKPGKAPKLLIYEASKHASGVPSRFSGSGSGAEFTLTISSLQPDDFATYYCLGEFSCGSGDCLAFGQGTKLTVL
notes: as for B6
For B9, the binding result in assay [2] is on record as “binds”.

B10: MYT11402 (antibody, V domains shown)
VH: EVQLVESGGGLVQPGGSLRLSCTASGIDLSNYAVIWVRQAPGKGLEWVGIIYTYDTTYYANWAKGRFTISRDTSKNTVYLQMNSLRAEDTAVYFCARSFSDISDLIKLWGQGTLVTVSS
VL: EIVMTQSPSTLSASVGDRVIITCQASQSLYNNKDLAWYQQKPGKAPKLLIYEASKLAHGVPSRFSGSGSGAEFTLTISSLQPDDFATYYCLGEFSCGSGDCLAFGQGTKLTVL
notes: as for B6
For B10, the binding result in assay [2] is listed as “binds”.

B11: MYT11408 (antibody, V domains shown)
VH: EVQLVESGGGLVQPGGSLRLSCTASGIDLSNYAVIWVRQAPGKGLEWVGIIYTYDTTYYANWAKGRFTISRDTSKNTVYLQMNSLRAEDTAVYFCARSFSDISDLIKLWGQGTLVTVSS
VL: EIVMTQSPSTLSASVGDRVIITCQASQSLYNNKDLAWYQQKPGKAPKLLIYEASKLASGVPSRFSGSGSGAEFTLTISSLQPDDFATYYCLGEFSCHSGDCLAFGQGTKLTVL
notes: as for B6
For B11, in assay [2], the binding result was “binds”.

B12: MYT11420 (antibody, V domains shown)
VH: EVQLVESGGGLVQPGGSLRLSCTASGIDLSNYAVIWVRQAPGKGLEWVGIIYTYDTTYYANWAKGRFTISRDTSKNTVYLQMNSLRAEDTAVYFCARSFSDISDLIKLWGQGTLVTVSS
VL: EIVMTQSPSTLSASVGDRVIITCQASQSLYNNKDLAWYQQKPGKAPKLLIYEASKLASGVPSRFSGSGSGAEFTLTISSLQPDDFATYYCLGEFSCGSGACLAFGQGTKLTVL
notes: as for B7
As for B12, the binding result in assay [2] is recorded as “binds”.

B13: MYT11403 (antibody, V domains shown)
VH: EVQLVESGGGLVQPGGSLRLSCTASGIDLSNYAVIWVRQAPGKGLEWVGIIYTYDTTYYANWAKGRFTISRDTSKNTVYLQMNSLRAEDTAVYFCARSFSDISDLIKLWGQGTLVTVSS
VL: EIVMTQSPSTLSASVGDRVIITCQASQSLYNNKDLAWYQQKPGKAPKLLIYEASKLASGVPSRFSGSGSGAEFTLTISSLQPDDFATYYCHGEFSCGSGDCLAFGQGTKLTVL
notes: as for B6
Turning to B13, the binding result in assay [2] is given as “binds”.

B14: MYT11413 (antibody, V domains shown)
VH: EVQLVESGGGLVQPGGSLRLSCTASGIDLSNYAVIWVRQAPGKGLEWVGIIYTYDTTYYANWAKGRFTISRDTSKNTVYLQMNSLRAEDTAVYFCARSFSDISDLIKLWGQGTLVTVSS
VL: EIVMTQSPSTLSASVGDRVIITCQASQSLYNNKDLAWYQQKPGKAPKLLIYEASKLASGVPSRFSGSGSGAEFTLTISSLQPDDFATYYCLGEFSCGSGDCLHFGQGTKLTVL
notes: as for B6
As for B14, the binding result in assay [2] is given as “binds”.

B15: MYT11414 (antibody, V domains shown)
VH: EVQLVESGGGLVQPGGSLRLSCTASGIDLSNYAVIWVRQAPGKGLEWVGIIYTYDTTYYANWAKGRFTISRDTSKNTVYLQMNSLRAEDTAVYFCARSFSDISDLIKLWGQGTLVTVSS
VL: EIVMTQSPSTLSASVGDRVIITCQASQSLYNNKDLAWYQQKPGKAPKLLIYEASKLASGVPSRFSGSGSGAEFTLTISSLQPDDFATYYCLGEFSCGSGDCLAFGQGTKLEIK
notes: captured via anti-human Fc
As to B15, the binding result in assay [2] was “binds”.
